{"source": "the nanobody polyreactivity screen of Harvey et al. (2022)", "data": [{"assay": "yeast display, Sf9 membrane polyspecificity reagent, FACS + sequencing; frameworks hold sequencing errors", "in_short": "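Nanobodies from a synthetic yeast display library (Saccharomyces cerevisiae BJ5465), induced 36–48 hours with galactose, were stained 1 hour at 4 °C with 10% biotinylated, detergent-solubilized Sf9 membrane reagent, enriched on streptavidin microbeads, then FACS-sorted. Anti-HA (expression) and streptavidin (reagent binding) fluorescence set low and high (top ~1%) gates. Polyreactivity labels come from the gate of origin. Genes were colony-PCR amplified, MiSeq 2 × 250 sequenced and filtered by CDR length.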", "values": [{"sequence": "QVQLVESGGGLVQAGGSLRLSCAASGLIFSYNAMGWYRQAPGKERELVASISSGDSTNYADSVKGRFTISRDNAKNTVYLQMNSLKPEDTAVYYCNKVYSWGDYTPPFYFPYDYWGQGTQVTVSS", "polyreactivity (PSR sort gate)": "low polyreactivity"}, {"sequence": "QVQLVESGGGLVQAGGSLRLSCAASGLIFVDNAMGWYRQAPGKERELVAAIESGGSTNYADSVKGRFTISRDNAKNTVYLHMNSLKPEDTAVYYCAADWIYAPWYYQESVEYYYWGQGTQVTVSS", "polyreactivity (PSR sort gate)": "low polyreactivity"}, {"sequence": "QVQLVESGGGLVQAGGSLRLSCAASGLIFVGNAMGWYRQAPGKERELVAAISSRGGRTYYADSVKGRFTISRDNAKNTVYLQMNSLKPEDTAVYYCNAAKSQWGFEYWGQGTQVTVSS", "polyreactivity (PSR sort gate)": "high polyreactivity"}, {"sequence": "QVQLVESGGGLVQAGGSLRLSCAASGLIFVGYAMGWSRQAPGKERELVAAITSGGYTKYADSVKGRFTISRDNAKYSVYLQMNSLKPEDTAVYFCAASGWRKWWSARNYYWGQGTQVTVSS", "polyreactivity (PSR sort gate)": "low polyreactivity"}, {"sequence": "QVQLVESGGGLVQAGGSLRLSCAASGLIFVINAMGWYRQAPGKERELVATISSRVSTNYADSVKGRFTISRDNAKNTVYLQMNSLKPEDTAVYYCNKGQTVSRGYRLYERFDYWGQGTQVTVSS", "polyreactivity (PSR sort gate)": "low polyreactivity"}, {"sequence": "QVQLVESGGGLVQAGGSLRLSCAASGLIFVKYAMGWYRQAPGKERELVAAITSTGGSTYYADSVKGRFTISRDNAKNTVYLQMNILKPEDTAVYYCATDYGYYDYWGQGTQVTVSS", "polyreactivity (PSR sort gate)": "low polyreactivity"}, {"sequence": "QVQLVESGGGLVQAGGSLRLSCAASGLIFVKYARGWYRQAPGKEREFVAAITRSGGTTYYADSVKGRFTISRDNAKNPVYLQMNSLKPEDTAVYYCAAGVVIYFFGGGDYWGQGPQVTVSS", "polyreactivity (PSR sort gate)": "low polyreactivity"}, {"sequence": "QVQLVESGGGLVQAGGSLRLSCAASGLIFVQNAMGWYRPAPGKERELVAAISSRGTNTYYADSVKGRFTISRDTAKNTVYLQMNSLKPEDTAVYYCAKPLKTPRPNYDYWGQGTQVTVSS", "polyreactivity (PSR sort gate)": "low polyreactivity"}, {"sequence": "QVQLVESGGGLVQAGGSLRLSCAASGLIFVSYAMGWYRPAPGKERELVAAINSRGSRTYYADSVKGRFTISRDNAKNTVYLQMNSLKPEDTAVYYCAAGVIRYGGKEEYYYWGQGTQVTVSS", "polyreactivity (PSR sort gate)": "high polyreactivity"}, {"sequence": "QVQLVESGGGLVQAGGSLRLSCAASGLIFVSYGMGWYRQAPGKERELVAAITFSGGSTYYADSVKGRFTISRDNAKNTVYLQMNSLKPEDTAVYYCNADYYPGYDYWGQGTQVTVSS", "polyreactivity (PSR sort gate)": "high polyreactivity"}, {"sequence": "QVQLVESGGGLVQAGGSLRLSCAASGLIFVVYVMGWYRQAPGKERELVAAISGSGDSTYYADSVKGRFTISRDNAKNTVYLQMNSLKPEDTAVYYCNARSISRKKGYPPQRSDGYWGQGTQVTVSS", "polyreactivity (PSR sort gate)": "high polyreactivity"}, {"sequence": "QVQLVESGGGLVQAGGSLRLSCAASGLIFVWYALGWSRQAPGKERELVAAISWRGGTTYYADSVKGRFTISRDNAKNTVYLQMNSLKPEDTAVYYCNAEGSQVDYLRYVWYDMDYWGQGTQVTVSS", "polyreactivity (PSR sort gate)": "low polyreactivity"}, {"sequence": "QVQLVESGGGLVQAGGSLRLSCAASGLIFVYYTMGWYRQAPGKERELVARISQSGGTTYYADSVKGRFTISRDNAKNTVYLQMNSLKPEDTAVYYCNARRVGVHYRYDYWGQGTQVTVSS", "polyreactivity (PSR sort gate)": "high polyreactivity"}, {"sequence": "QVQLVESGGGLVQAGGSLRLSCAASGLIFWAYAMGWYRQAPGKERELVAAINSGGRTYYADSVKGRFTISRDNAKNTVYLQMNSLKPEDTAVYYCAAAGVYSSDYWGQGTQVTVSS", "polyreactivity (PSR sort gate)": "low polyreactivity"}, {"sequence": "QVQLVESGGGLVQAGGSLRLSCAASGLIFWAYAMGWYRQAPGKERELVAAINWRGGSTYYADSVKGRFTISRDNAKNTVYLQMNSLKPEDTAVYYCAADSYYDEYDYCGQGTQVTVSS", "polyreactivity (PSR sort gate)": "low polyreactivity"}, {"sequence": "QVQLVESGGGLVQAGGSLRLSCAASGLIFWAYAMGWYRQAPGKERELVAGISVSGGSTYYADSVKGRFTISRDNAKNTVYLQMNSLKPEDTAVYYCAARLPRTRYWDDYWGQGTQVTVSS", "polyreactivity (PSR sort gate)": "high polyreactivity"}, {"sequence": "QVQLVESGGGLVQAGGSLRLSCAASGLIFWHYAMGWYRQAPGKERELVARISYGGGSTYYADSVKGRFTISRDNAKNTVYLQMNSLKPEDTAVYYCNAKYYSVSQYWYNYWGQGTQVTVSS", "polyreactivity (PSR sort gate)": "high polyreactivity"}]}]}
